Measured values published in PMC3564912, “Single Particle Electron Microscopy Analysis of the Bovine Anion Exchanger 1 Reveals a Flexible Linker Connecting the Cytoplasmic and Membrane Domains” (PLoS ONE, 2013).

Biological target: the molecule itself
Assay: SEC; Superose 6 10/300, 50 mM Tris-HCl pH 7.5, 0.03% DDM, 0.15 M NaCl; sample after ion exchange and the dimer fraction run again

B1: bovine anion exchanger 1 (AE1) (natural protein, UniProt Q9XSW5 1-930, looked up)
chain: MGDPEEYEDQLEETLEQKEYEDHDSVSIPMEEAEGDTIQEEEAEARVNQLTDTDYHTTSQHPETHKVCVQLRELVMDEKNQEIQWMETARWVGLEENLGKDGIWGRPHLPYLNFWSLLELQKAFAKGTVLLDLPGKSLAEVANQLLDRFTFEGQIQPDDQDNLLRVLLLKHSHASDMEALGGVKPVVVTHSGDPSEPLLPQHPSLETELFCEQGEGSTRGHAPEILGKSPQDWEATLVLVGCARFLKRPVLGFVRLKEPMEPEPKPEGSEEPAVPVRFLIVLLGPEGPNINYTQLGRAAATLMSERVFWNDAYLAQSKETLVQSLEGFLDCSLVLPPLDAPSEKALLSLVPVQKELLRRRYLPSPAKPDPSIFKDLDVKKGPGDTPEDPLQRTGKLFGGLVRDIRRRYPRYLSDITDALSPQVLSAIIFIYFAALTPAITFGGLLGDKTENMIGVSELLLSTALQGIIFSLLGAQPLLVLGFSGPLLVFEEAFYSFCQTNNLEYIVGRVWIGFWLILLVVLVVAFEGSFLVRFISRYTQEIFSFLISLIFIYETFYKLVTIFQDHPLQKNYDHDVLTTPKPQAALPNTALLSLVLMAGTFFLAMMLRKFKNSSYFPGKLRRIIGDFGVPISILIMVMVDALIQDTYTQKLSVPEGLSVSNPTERDWLIHPLGIRVEFPIWMMFASALPALLVFILIFLESQITTLIISKPERKMVKGSGFHLDLLLIIGMGGVGAIFGMPWLSATTVRTVTHANALTVMSKDSTPGAVSQIQGVKEQRISGLLVAVLVGVSILMGPVLRHIPLAVLFGIFLYMGVTSLSGIQLFDRVLLLLKPRKYYPEVPYARRVKTWRMHLFTITQIVCLVVLWVVRSIKQISLALPFILILTVPLRRFLLPFIFRDMELKLLDADDVKLNLDEQNGQDEYDEVAMPV
notes: anion exchanger 1 (AE1, band 3), bovine, native protein from erythrocyte membranes; monomer about 100 kDa; Solubilised in dodecyl maltoside (0.03% DDM in the final buffer); The dimer fraction from size exclusion was used; also called bovine AE1; full-length AE1 dimer; source: purified from bovine erythrocyte membranes (ghosts; DDM extraction, DE-52 ion exchange, Superose 6 size exclusion)
- stoichiometry N: 2
